# Legend:
# [1] = system: CoREST del 2 (aa 293-482), His-tagged
# [2] = system: His-tagged full length (1-482aa) human CoREST
substance,measurement,setting,value
"histidine epitope-tagged LSD1 (HIS-LSD1), full length (1-851aa) human LSD1",stimulation of LSD1 demethylation activity (nucleosomal substrates),[1],sufficient to mediate stimulation of LSD1 demethylation activity to a level that is comparable to that of the wildtype CoREST
same,demethylation of nucleosomal substrates by LSD1 (Western blot with K4-H3 methylation-specific antibodies),[2],addition of CoREST to the demethylation reaction restored the ability of recombinant LSD1 to demethylate nucleosomal substrates

# — patent US20130210888
